In test [1] the target is T1, MLO-Y4 cell surface proteins (Mus musculus, UniProt E9Q9D8).
T1 construct: endogenous in cells; host or cells: MLO-Y4
T1 sequence (E9Q9D8 1-996): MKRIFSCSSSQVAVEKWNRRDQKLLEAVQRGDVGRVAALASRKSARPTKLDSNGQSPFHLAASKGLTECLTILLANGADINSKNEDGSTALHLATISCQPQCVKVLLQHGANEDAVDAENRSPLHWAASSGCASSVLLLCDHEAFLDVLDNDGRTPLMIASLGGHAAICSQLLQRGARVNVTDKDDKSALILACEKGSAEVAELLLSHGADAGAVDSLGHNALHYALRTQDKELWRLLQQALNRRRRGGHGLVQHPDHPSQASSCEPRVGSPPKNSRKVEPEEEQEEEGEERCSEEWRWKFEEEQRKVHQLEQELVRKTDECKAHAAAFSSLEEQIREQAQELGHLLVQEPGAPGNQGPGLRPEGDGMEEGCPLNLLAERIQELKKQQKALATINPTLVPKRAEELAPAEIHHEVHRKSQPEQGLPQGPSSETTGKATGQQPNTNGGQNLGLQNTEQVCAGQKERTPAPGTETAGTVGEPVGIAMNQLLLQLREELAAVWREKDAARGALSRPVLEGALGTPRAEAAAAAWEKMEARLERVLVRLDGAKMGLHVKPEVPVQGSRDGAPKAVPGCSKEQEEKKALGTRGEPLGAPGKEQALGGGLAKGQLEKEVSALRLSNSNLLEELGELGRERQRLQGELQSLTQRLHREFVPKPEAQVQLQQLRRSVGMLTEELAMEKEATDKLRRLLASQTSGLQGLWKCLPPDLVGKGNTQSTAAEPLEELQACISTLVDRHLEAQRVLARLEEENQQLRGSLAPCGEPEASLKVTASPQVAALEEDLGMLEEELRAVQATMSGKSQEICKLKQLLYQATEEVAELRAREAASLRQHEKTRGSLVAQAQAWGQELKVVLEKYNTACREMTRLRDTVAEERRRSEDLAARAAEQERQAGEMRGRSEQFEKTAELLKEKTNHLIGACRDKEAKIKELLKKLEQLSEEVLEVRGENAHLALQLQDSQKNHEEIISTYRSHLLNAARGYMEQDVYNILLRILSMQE
In words: Crosslinking/co-immunoprecipitation/mass spectrometry (TMT quantitative proteomics) to identify irisin receptors. Particulars: co-precipitated protein Ankrd35 (E9Q9D8_MOUSE). The format is binding. Here is the method:
(§1) MLO-Y4 cells were seeded on 30×150 mm type-I collagen coated dishes as described in cell culture experiment. At 60% cell density, medium was switched to FreeStyle™ 293 Expression medium. After 4 hours incubation, the cells were chilled on ice for 10 minutes, followed by treatment of 10 nM his-tag irisin or his-tag adipsin for 20 minutes. The cells were then incubated with 1.5 mM DTSSP for 30 minutes on ice to do cross-linking, after washing with 15 ml cold PBS twice. The cross-linking was quenched by addition of a final concentration of 20 mM Tris-pH 7.5. The cells were then harvested and homogenized in 1 ml RIPA buffer containing proteaseinhibitor cocktailand phosphatase-inhibitor cocktail. Whole-cell lysates were homogenized by 10 times passages through a 22G needle fitted to a 3 ml syringe. Homogenized samples were rotated gently in cold room for 20 minutes followed by 15,000×g centrifugation for 10 minutes. After addition of a final concentration of 10 mM imidazole, supernatants were incubated with 100 μl Ni-NTA agarose for 1 hour. After centrifugation at 500×g for 1 minute, the supernatants were aspirated and 1 ml cold RIPA buffer containing 10 mM imidazole were added to the agarose. After 10 minutes rotation in cold room, the supernatants were aspirated and 1 ml cold RIPA buffer containing 30 mM imidazole were added to the agarose. After repeating the washing 3 times, 0.8 ml RIPA buffer containing 250 mM imidazole was added and the agarose was gently rotated in a cold room for 20 minutes. After centrifugation at 1000×g for 2 minutes, the supernatants were transferred to 1.5 ml tube and incubated with 100 μl 0.2% sodium deoxycholate and 100 μl 10% trichloroacetic acid in ice for 1 hour. After centrifugation at 12,000×g for 10 minutes at 4° C., the supernatants were removed and 1 ml cold acetone was added to the pellets followed by vortexing for 10 seconds. After one more washing with cold acetone, the pellets were dried at 37° C., and 39 μl PBS and 13 μl 4×NuPAGE LDS were added to the pellets with a final concentration of 5 mM DTT. Solubilized proteins were incubated at 65° C. for 20 minutes followed by incubation with a final concentration of 14 mM iodoacetamide for 45 minutes in the dark. 38 μl samples were loaded to 4-12% gradient SDS-PAGE for separation followed by Coomassie Blue staining. The gels were submitted to quantitative proteomics.
(§2) For in-gel digestions, gels were stained with Coomassie Blue and were excised into 8 equal segments for control and irisin lanes. Gel pieces were destained and dehydrated with 100% acetonitrile, vacuumed dried, and digested in 25 mM HEPES (pH 8.5) with 500 ng sequencing grade trypsin (Promega) and incubated for an overnight at 37° C. (Shevchenko et al. (1996) Anal. Chem. 68:850-858). Digests were treated with 1% formic acid and purified using C18 Stage-Tips as previously described (Rappsilber et al. (2007) Nat. Protoc. 2:1896-1906). Peptides were eluted with 70% acetonitrile and 1% formic acid, then dried using a speedvac. Isobaric labeling of digested peptides was accomplished using 6-plex tandem mass tag (TMT) reagents (Thermo Fisher Scientific, Rockford, Ill.). Reagents, 5.0 mg, were dissolved in 252 μl acetonitrile (ACN) and 5 μl of the solution was added to the digested peptides dissolved in 25 μl of 200 mM HEPES, pH 8.5. After 1 hour at room temperature, the reaction was quenched by adding 1 μl of 5% hydroxylamine. Labeled peptides were combined and acidified prior to C18 Stage-Tips desalting.
(§3) All LC-MS/MS experiments were performed on an Orbitrap Fusion™ Lumos mass spectrometer (Thermo Fisher Scientific, San Jose, Calif., USA) coupled with a Proxeon EASY-nLC™ 1200 LC pump (Thermo Fisher Scientific). Peptides were separated on a 100 μm inner diameter microcapillary column packed with 35 cm of Accucore™ C18 resin (1.8 μm, 100 Å, Thermo Fisher Scientific). […]

Test [2] addresses T2, MLO-Y4 cell surface proteins (Mus musculus, UniProt P62880).
T2 construct: endogenous in cells; host or cells: MLO-Y4
The test is described as above. In kind it is binding. Conditions: co-precipitated protein Gnb2 (GBB2_MOUSE). Here is the method:
as §1, §2, §3

T2 sequence (P62880 whole entry): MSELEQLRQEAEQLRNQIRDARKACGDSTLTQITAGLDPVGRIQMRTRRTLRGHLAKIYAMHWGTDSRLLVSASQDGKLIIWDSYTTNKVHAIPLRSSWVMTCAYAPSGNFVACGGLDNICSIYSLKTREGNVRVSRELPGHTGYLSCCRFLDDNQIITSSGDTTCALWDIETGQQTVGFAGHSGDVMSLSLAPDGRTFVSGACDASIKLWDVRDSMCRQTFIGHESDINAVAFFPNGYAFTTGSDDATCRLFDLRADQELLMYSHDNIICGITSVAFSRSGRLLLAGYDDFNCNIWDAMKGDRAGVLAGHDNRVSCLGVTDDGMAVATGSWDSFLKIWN

As for adipsin, the TMT signal-to-noise ratio is on record as 314.798 in test [1] and 294.957 in test [2].

The values above are taken from patent US20210063414A1, “METHODS FOR PREVENTING AND/OR TREATING BONE LOSS CONDITIONS BY MODULATING IRISIN” (Dana-Farber Cancer Institute, Inc., priority 2018, published 2021).
